Data as given in patent US10787647B2, “HSD17B13 variants and uses thereof” (Regeneron Pharmaceuticals, Inc., priority 2017, dated 2020).

T1: recombinant human HSD17B13 (Homo sapiens, UniProt Q7Z5P4)
T1 sequence (Q7Z5P4 20-300): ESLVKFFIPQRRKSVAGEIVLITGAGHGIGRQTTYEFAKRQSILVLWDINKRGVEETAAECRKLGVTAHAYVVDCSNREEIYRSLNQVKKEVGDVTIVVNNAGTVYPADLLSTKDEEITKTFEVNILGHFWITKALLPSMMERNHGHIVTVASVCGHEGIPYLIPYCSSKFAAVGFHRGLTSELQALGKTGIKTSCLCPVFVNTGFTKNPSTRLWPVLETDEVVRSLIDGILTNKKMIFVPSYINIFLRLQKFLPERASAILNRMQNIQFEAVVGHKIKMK

T2: HSD17B13 (Homo sapiens, UniProt Q7Z5P4)
T2 construct: Transcript A, which encodes the full-length 300 amino acid protein; 10x His (C); host or cells: E. coli
T2 sequence (Q7Z5P4 with tags, fused parts or gaps): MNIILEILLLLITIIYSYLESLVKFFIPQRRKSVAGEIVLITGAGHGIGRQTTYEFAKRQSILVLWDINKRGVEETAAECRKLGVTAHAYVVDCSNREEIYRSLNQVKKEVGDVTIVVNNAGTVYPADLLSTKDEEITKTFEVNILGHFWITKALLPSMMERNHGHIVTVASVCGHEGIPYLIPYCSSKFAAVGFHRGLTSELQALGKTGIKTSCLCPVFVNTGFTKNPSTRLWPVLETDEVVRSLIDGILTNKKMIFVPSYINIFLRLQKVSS


Legend:
[1] = target: T1, recombinant human HSD17B13; test: Substrate screening of steroid and bioactive lipid libraries against purified recombinant HSD17B13 (NADH-Glo); assay type: biochemical; conditions: putative substrate screen with recombinant protein
Protocol: Reactions were performed in a final volume of 40 μL of assay buffer (0.2 M Tris-HCl, pH 7.5) which contained 500 μM NAD^±, 5 μM bioactive lipid or 50 μM steroid (all in a final concentration of 5% DMSO), and 100 ng recombinant human HSD17B13. Reactions were incubated for 3 hours, at 23° C., after which an equal volume NADH-Glo Detection Reagent (Promega) was added. Following a 1 hour incubation at 23° C., the relative light units (RLUs) were measured on an Envision Plate Reader (Perkin Elmer). Raw RLU values were normalized as percent of control (50 μM estradiol) following subtraction of negative control (5% DMSO) using the following formula: Percent of control (POC)=100×(Sample (RLU)−Negative CTRLaverage)/(Positive CTRLaverage−Negative CTRLaverage).

[2] = system: HepG2 cells; test: Quantification of intracellular triglyceride content in stable cell lines; assay type: cell-based, human; conditions: for intracellular triglyceride content versus GFP control: cell lines overexpressing isoform, oleic acid treatment
Protocol: HepG2 cells were cultured in Eagle's Minimum Essential Medium supplemented with 10% fetal bovine serum. HSD17B13 transcripts A and D were sub-cloned into Myc-DDK backbone lentivirus constructs, and lentivirus were generated. HepG2 cells were infected with lentivirus carrying the HSD17B13 transcripts. Stable cell lines expressing each HSD17B13 transcript were selected with 1-3 mg/ml Geneticin G-418 sulfate in complete culture medium for two weeks. Following fixation, HSD17B13 isoforms were detected with mouse anti-Myc antibody. Lipid droplets were labeled with BODIPY FL dye (Sigma). Secondary antibodies for immunofluorescence were Alexa Fluor 488 donkey anti-rabbit IgG and Alexa Fluor 594 donkey anti-mouse IgG (Jackson ImmunoResearch).
The triglyceride (TG) content from the stable cells was determined using a TG quantification kit (Abcam). In the assay, TG are converted to free fatty acids and glycerol. The glycerol is then oxidized to generate a product which is quantified (spectrophotometry at λ=570 nm).

[3] = target: T2, HSD17B13; test: In vitro enzymatic activity of recombinant HSD17B13 isoforms A and D (NADH production, NAD(P)H-Glo); assay type: biochemical
Protocol: Recombinant human HSD17B13 protein was purified from E. coli (Genscript) transformed with plasmid DNA harboring HSD17B13 transcript A or transcript D. The HSD17B13 variants contained a 10× His tag at the C terminus and were purified from soluble fraction using a Ni2^+ affinity purification. Enzymatic activity was determined through measurement of NADH production using the NAD(P)H-Glo Detection System (Promega). Reactions were performed for 3 hours at 25° C. in 0.2 M Tris-HCl, pH 7.5, 0.5 mM NAD^+, 75 μM of substrate (Sigma) and 500 ng purified enzyme in a final volume of 100 μL. After incubation, 20 μL of the reaction was combined with 20 μL luciferase reagent (Promega), incubated at room temperature for 1 hour and read on an Envision Plate Reader (Perkin Elmer).

[4] = system: HEK293 cells overexpressing HSD17B13 transcript A, transcript D or GFP; test: Cell-based estradiol to estrone conversion in culture media (LC-MS); design: species or system human; conditions: overexpressed in HEK293 cells, estradiol 1 μM, 48 hours
Protocol: HEK293 cells overexpressing HSD17B13 transcript A, transcript D or green fluorescent protein (GFP, control) were used to investigate the activity of HSD17B13 against estradiol in a cell-based assay. Estradiol (1 μM) was fed to each cell type. After 48 hours, the media was collected and the concentration of estradiol and its converted product estrone were identified and quantified by LC-MS.

Row | Molecule | enzymatically converted by HSD17B13 (oxidation of a hydroxyl to a ketone group) [1] | conversion of estradiol (substrate) to estrone (product) measured in the culture media [4] | intracellular triglyceride content versus GFP control [2] | further results
1 | CCCCCC(O)C=CC=CCCCCCCCC(=O)O (stereo not drawn) [13-Hydroxyoctadecadienoic acid] | enzymatically converted | – | – | –
2 | CCCCCCCC/C=C\CCCCCCCC(=O)O [oleic acid, reference compound] | – | – | – | triglyceride (TG) content ([2]; increasing concentrations of oleic acid, HepG2 GFP control and HSD17B13 Transcript A and D cell lines): increased triglyceride (TG) content
3 | HSD17B13 Isoform D: HSD17B13 Protein Isoform D, SEQ ID NO: 15; prematurely truncated protein encoded by Transcript D of the rs72613567 variant (protein, listed as Homo sapiens, (1)..(70) Region Encoded by Exon 1; (71)..(106) Region Encoded by Exon 2; (107)..(150) Region Encoded by Exon 3; (151)..(185) Region Encoded by Exon 4; (186)..(232) Region Encoded by Exon 5; (233)..(271) Region Encoded by Exon 6v2; (272)..(274) Region Encoded by Exon 7) MNIILEILLLLITIIYSYLESLVKFFIPQRRKSVAGEIVLITGAGHGIGRQTTYEFAKRQSILVLWDINKRGVEETAAECRKLGVTAHAYVVDCSNREEIYRSLNQVKKEVGDVTIVVNNAGTVYPADLLSTKDEEITKTFEVNILGHFWITKALLPSMMERNHGHIVTVASVCGHEGIPYLIPYCSSKFAAVGFHRGLTSELQALGKTGIKTSCLCPVFVNTGFTKNPSTRLWPVLETDEVVRSLIDGILTNKKMIFVPSYINIFLRLQKVSS | – | did not show much conversion | No differences | activity towards the three substrates ([3]; estradiol, leukotriene B4, 13-Hydroxyoctadecadienoic acid, recombinant protein in vitro): greatly reduced activity; activity towards estradiol in vitro compared to HSD17B13 isoform A ([3]; estradiol, recombinant protein, NAD cofactor): greatly reduced activity; enzymatic activity of the corresponding values for Isoform A ([3]; substrates 17-beta estradiol, leukotriene B4, 13(S)-HODE, recombinant protein): < 10%; conversion of estradiol (substrate) to estrone (product) measured in the culture media ([4]; listed as HSD17B13 isoform D): greatly reduced activity
4 | HSD17B13 Isoform A: HSD17B13 Protein Isoform A, SEQ ID NO: 12; full-length 300 amino acid protein encoded by Transcript A (protein, listed as Homo sapiens, (1)..(70) Region Encoded by Exon 1; (71)..(106) Region Encoded by Exon 2; (107)..(150) Region Encoded by Exon 3; (151)..(185) Region Encoded by Exon 4; (186)..(232) Region Encoded by Exon 5; (233)..(271) Region Encoded by Exon 6v1; (272)..(300) Region Encoded by Exon 7) MNIILEILLLLITIIYSYLESLVKFFIPQRRKSVAGEIVLITGAGHGIGRQTTYEFAKRQSILVLWDINKRGVEETAAECRKLGVTAHAYVVDCSNREEIYRSLNQVKKEVGDVTIVVNNAGTVYPADLLSTKDEEITKTFEVNILGHFWITKALLPSMMERNHGHIVTVASVCGHEGIPYLIPYCSSKFAAVGFHRGLTSELQALGKTGIKTSCLCPVFVNTGFTKNPSTRLWPVLETDEVVRSLIDGILTNKKMIFVPSYINIFLRLQKFLPERASAILNRMQNIQFEAVVGHKIKMK | – | robust conversion | No differences | –

The next lines start with results.

Row | enzymatically converted by HSD17B13 (oxidation of a hydroxyl to a ketone group) [1] | Molecule | conversion of estradiol (substrate) to estrone (product) measured in the culture media [4] | intracellular triglyceride content versus GFP control [2] | further results
5 | enzymatically converted | C[C@]12CC[C@@H]3c4ccc(O)cc4CC[C@H]3[C@@H]1CC[C@@H]2O [estradiol, 17-beta estradiol] | – | – | –
6 | enzymatically converted | CCCCC/C=C\C[C@@H](O)/C=C/C=C/C=C\[C@@H](O)CCCC(=O)O [leukotriene B4] | – | – | –
